Measured values reported in publication PMC6783550, “Molecular mechanism of azoxy bond formation for azoxymycins biosynthesis” (Nature Communications, 2019).

Columns and labels:
Nc1ccc(/C=C/C(=O)O)cc1 = assay: purified protein; conditions: 30 °C, general assay: 1 mM NADH, 10 μM PMS, O2, 20 mM HEPES pH 7
[1] = biological target: AzoC (Streptomyces chattanoogensis); assay: native gel or EMSA + SEC; Native-PAGE and size-exclusion chromatography of purified recombinant AzoC; SEC on Sephacryl S-300, AKTA Purifier, 4 °C, 20 mM Tris pH 8.0, 250 mM NaCl, 1 mL/min, markers IgG (150 kDa) and BSA (67 kDa); self-association, homodimer

AzoC (Streptomyces chattanoogensis)
Km (Nc1ccc(/C=C/C(=O)O)cc1): 4.24 ± 0.9 µM
kcat (Nc1ccc(/C=C/C(=O)O)cc1): 0.7005 ± 0.0698 s⁻¹

AzoC (enzyme)
stoichiometry N [1]: 2
